Measurements published in the DeepSol protein solubility set.

assay: soluble on expression in E. coli; label from the status in PepcDB or PDB records

Row | Sequence | soluble on expression in E. coli
1 | MSLYQHGYHAGNFADVIKHITLTRLLAYLTHKDKPLFYLETHSGRGIYDLKDKQSLKTEEYKEGINPVWLDRENLPSLFLEYISVIKQINLNSTLSYYPGSPYFAINQLRSQDRLYLCELHPTEYNFLLKLPHFNKKVYVNHTDGVSKLNALLPPPEKRGLIFIDPSYERKEEYKEIPYAIKNAYSKFSTGLYCVWYPVVNKAWTEQFLRKMREISSKSVRIELHLNPLINEGMTGCGLWIINPPYTFPSEIKLVLETLTTYFNPGSSSYMIESGSKLCHGLKGIITITTDPNSSSVDKLAAALEHHHHHH | soluble
2 | MSLYQLEDDSLMLHNDLYQINMAESYWNDNIHEKMAVFDLYFRKMPFNSGYAVFNGLKRVIDFIEHFGFSESDLEYLKSIGYKDDFLSYLKDLKFTGSIRSMQEGELCFGNEPLLRVEAPLIQAQLIETILLNIVNFHTLITTKASRIRQIASNDKLMEFGTRRAQEIDAALWGARAAYIGGFDSTSNVRAGKLFGIPVSGTHAHAFVQTYGDEYVAFKKYAERHKNCVFLVDTFHTLKSGVPNAIKVAKELGDKINFVGIRLDSGDIAYLSKEARRMLDEAGFTETKIIASNDLDEETITSLKAQGAKVDSWGVGTKLITGYDQPALGAVYKLVAIENEEGSYSDRIKLSNNAEKVTTPGKKNVYRIINKKTGKAEGDYITLENENPYDEQPLKLFHPVHTYKMKFIKSFEAIDLHHNIYENGKLVYQMPTEDESREYLAQGLQSIWDENKRFLNPQEYPVDLSKACWDNKHKRIFEVAEHVKEMEEDNEEGHHHHHH | soluble
3 | MSLYRVFEALDELSAIVEEARGVPMTAGCVVPRGDVLELIDDIKDAIPGELDDAQDVLDARDSMLQDAKTHADSMVSSATTEAESILNHARTEADRILSDAKAQADRMVSEARQHSERMVADAREEAIRIATAAKREYEASVSRAQAECDRLIENGNISYEKAVQEGIKEQQRLVSQNEVVAAANAESTRLVDTAHAEADRLRGECDIYVDNKLAEFEEFLNGTLRSVGRGRHQLRTAAGTHDYAVREGHHHHHH | soluble
4 | MSLYTFKELKRATKQDTVSLPKLKVALLGDTATQLLATAIKGEGILRNYNIELWEAEYNQVERQIMDPTSDYYQFEPDYTIIFHSTHKLLEKHSLVNSDLQNKLADDRLDFVRLLCEQGIGRVIYYNYPEIEDTIWGSYATKVQSSFTYQLTKLNYELMNISQAYPNFFICNLAGISAKYGRNFMFDSSVYVNTEIILSLDALPIISSRTIDIIAAIQGKFKKCLILDLDNTIWGGVVGDDGWENIQVGHGLGIGKAFTEFQEWVKKLKNRGIIIAVCSKNNEGKAKEPFERNPEMVLKLDDIAVFVANWENKADNIRTIQRTLNIGFDSMVFLDDNPFERNMVREHVPGVTVPELPEDPGDYLEYLYTLNLFETASFSEDDKDRTKQYQIEAKRVSLQQSFTNEAEFLKSLDMVSEVKGFDKFNTPRVAQLSQRSNQFNLRTVRYTEAEIAAIESDLHYATFSFTLADRFGDNGLICVIILEKQDTETLFINTWFMSCRVLKRGMENFTLNTLVDYARSNGFKRFIGEYLPSAKNQMVEEHYPHLGFSKMEGGDNAARYVLDVEEGHHHHHH | not soluble
5 | MSLYVSKLFTSQQWRELKLISYVTENADAIGVKDKELSKALNISMLTLQTCLTNMQFMKEVGGITYKNGYITIWYHQHCGLQEVYQKALRHSQSFKLLETLFFRDFNSLEELAEELFVSLSTLKRLIKKTNAYLTHTFGITILTSPVQVSGDEHQIRLFYLKYFSEAYKISEWPFGEMLNLKNCERLLSLMIKEVDVRVNFTLFQHLKILSSVNLIRYYKGYSAVYDNKKTSHRFSQLIQSSLEIQDLSRLFYLKFGLYLDETTIAEMFSNHVNDQLEIGYAFDSIKQDSPTGCRKVTNWVHLLDELEIRLNLSVTNKYEVAVILHNTTVLKEEDITANYLFFDYKKSYLNFYKQEHPHLYKAFVAGVEKLMRSEKEPISKELTNQLIYAFFITWENSFLKVNQKDEKIRLLVIERSFNSVGNFLKKYIGEFFSITNFNELDALTIDLEEIEKQYDVIVTDVMVGKSDELEIFFFYKMIPEAIIDKLNCVFKHQLCRQEGHHHHHH | not soluble
6 | MSMKGKETMSKQNEKLVVGKLGSSYGIRGWLKVFSYTDNPESIFDYSPWYIDQKGEWVEYKVEGWKRHNKGWVVKLQGLDVREDAHLLTNFEIAIDPASLPELSEDEFYWRELFGMQVVTTNGYDLGVVTDMMETGSNDVLVVKANLKDAFGQKERLIPFLEEQVIKVVDRQAQRIEVDWDPAF | soluble
7 | MSMKTTQEINKEDEELCNESKKFMDVYYDVMDRKREKIGFLYTQVSNAVWNGNPINGYDSICEFMKALPSTQHDIQSLDAQRLPEGVTGDMSGGMLLNVAGAVTVDGDSKRAFTQTLLLGVEDGKYKVKSDRFRYVD | not soluble
8 | MSNFEKKYILELNDALSHLNHNSTSFDLLKVLISWLSNDIVIDKFKILGYDFSKYIEMNPDDYPVEKSILNREEIIYLKNNIYRKISSGNFKFQYFVQYIRDILEYLFIEHIERVCPYCEWGEMQKLEEQNTHETVYLCTQCGCAFYNDNSQFLLKTPLTIPMKRDEFK | not soluble
9 | MSNHQVALQFEDGVTRFICIAQGETLSDAAYRQQINIPMDCREGECGTCRAFCESGNYDMPEDNYIEDALTPEEAQQGYVLACQCRPTSDAVFQIQASSEVCKTKIHHFEGTLARVENLSDSTITFDIQLDDGQPDIHFLAGQYVNVTLPGTTETRSYSFSSQPGNRLTGFVVRNVPQGKMSEYLSVQAKAGDKMSFTGPFGSFYLRDVKRPVLMLAGGTGIAPFLSMLQVLEQKGSEHPVRLVFGVTQDCDLVALEQLDALQQKLPWFEYRTVVAHAESQHERKGYVTGHIEYDWLNGGEVDVYLCGPVPMVEAVRSWLDTQGIQPANFLFEKFSAN | soluble
10 | MSNPLFPTESAALTLDGPVGPLDVAVDLPEPDVAVQPVTAIVCHPLSTEGGSMHNKVVTMAARALRELGITVVRFNFRSVGTSAGSFDHGDGEQDDLRAVAEWVRAQRPTDTLWLAGFSFGAYVSLRAAAALEPQVLISIAPPAGRWDFSDVQPPAQWLVIQGDADEIVDPQAVYDWLETLEQQPTLVRMPDTSHFFHRKLIDLRGALQHGVRRWLPATP | soluble
11 | MSNPQPEKVRVVVGDDHPLFREGVVRALSLSGSVNVVGEADDGAAALELIKAHLPDVALLDYRMPGMDGAQVAAAVRSYELPTRVLLISAHDEPAIVYQALQQGAAGFLLKDSTRTEIVKAVLDCAKGRDVVAPSLVGGLAGEIRQRAAPVAPVLSAREREVLNRIACGQSIPAIAAELYVAPSTVKTHVQRLYEKLGVSDRAAAVAEAMRQRLLD | soluble
12 | MSNQLAVSDVPTAAWTSQQPRSPRMFDQENGFSQNFQPFMQQNKTVNPCTISDDVREEMMRLRRRENAFKTALCKTFQLTKACSYGEQCKFAHSVEELQLKHQNLGINNPKYKTVLCDNFSTTGHCKYGTKCQFIHRTVEPASLKIQNPLVPRFPSWFAPPSSLAREFLCLNHFEASTSSSTTQKLTSSNLSTSTFRYY | not soluble
13 | MSNSAKLIDVITKVALPIGIIASGIQYSMYDVKGGSRGVIFDRINGVKQQVVGEGTHFLVPWLQKAIIYDVRTKPKSIATNTGTKDLQMVSLTLRVLHRPEVLQLPAIYQNLGLDYDERVLPSIGNEVLKSIVAQFDAAELITQREIISQKIRKELSTRANEFGIKLEDVSITHMTFGPEFTKAVEQKQIAQQDAERAKFLVEKAEQERQASVIRAEGEAESAEFISKALAKVGDGLLLIRRLEASKDIAQTLANSSNVVYLPSQHSGGGNSESSGSPNSLLLNIGR | not soluble
14 | MSNSITVRARGVNGQESVSLQVGGTTVQTWTLTTAMQDYTASTSLTGEIRVAFTNDATGRDVQVDYIVVNGQTRQAENQSVNTGVWANNQCGGSGNSEWLHCNGYISFGNVS | soluble
15 | MSNTVLVSGASGFIALHILSQLLKQDYKVIGTVRSHEKEAKLLRQFQHNPNLTLEIVPDISHPNAFDKVLQKRGREIRYVLHTASPFHYDTTEYEKDLLIPALEGTKNILNSIKKYAADTVERVVVTSSCTAIITLAKMDDPSVVFTEESWNEATWESCQIDGINAYFASKKFAEKAAWEFTKENEDHIKFKLTTVNPSLLFGPQLFDEDVHGHLNTSCEMINGLIHTPVNASVPDFHSIFIDVRDVALAHLYAFQKENTAGKRLVVTNGKFGNQDILDILNEDFPQLRGLIPLGKPGTGDQVIDRGSTTDNSATRKILGFEFRSLHESVHDTAAQILKKENRL | not soluble
16 | MSNYAKEERLTGGNVSSVYRSENTVRRELKPGSEKTHKLLQHLENKGFHYAPKFLGVDEKDREILSFIEGEAGNYPLKEYMRSNDVLKEIAKMLRLYHDAVSDFPLLNDWKPMDHTPNNIEVLCHNDFAIYNIIFNNEKPVGIIDFDVAAPGPRLWDIAYTLYTCVPLSRVYYTESGEAVHYDSPQHADRIKERVKLFVQSYGKNMDEDYLGMVLLRLEGLCTYMKRKAQEGDLNFQRMIDEGHLEHYEKDIKFIRDHRAEWS | not soluble
17 | MSPIPTTAETRKINEAAELMVNFWMSFACVEKEKEQMASIFEKMNGLFAAPSTTSTASLFGKYEGLFETTEVATEDFNTLWWNYPAQPSFPQLPVFVRSPIDSIKIYGAIQHDFGMSEDESVQYPSPISPSSDSSSETITHVSPGYLLQEVFLQRAVIEEQKKIIDGFHEIQKLNKKLAALHNNFTY | not soluble
18 | MSPKARWQFWIDRGGTFTDIVARSPDGKLITHKLLSEDPAHYEDAAMHGIRQILGLSENEPFPSEDVEAIKMGTTVGTNALLERKGERIVLVITKGFGDALRIGYQNRPDIFSQKIELPDQLYERVIEVSGRYSADGEEIVPLELESAKKELEEAYKAGIRSAAVILMHSYRYPEHELMLGRLATEIG | not soluble
19 | MSPLSGSLAPLNMKGLVKFQDVSFAYPNHPNVQVLQGLTFTLYPGKVTALVGPNGSGKSTVAALLQNLYQPTGGKVLLDGEPLVQYDHHYLHTQVAAVGQEPLLFGRSFRENIAYGLTRTPTMEEITAVAMESGAHDFISGFPQGYDTEVGETGNQLSGGQRQAVALARALIRKPRLLILDQATSALDAGNQLRVQRLLYESPEWASRTVLLITHQLSLAERAHHILFLKEGSVCEQGTHLQLMERGGCYRSMVEALAAPSDAAAHHHHHH | soluble
20 | MSPLTQFKFFLWFFSHFKVALIGYLKPKLIQLTDNEIVVRLPLTRRSRNHLHSMYFGALAVGADIAGGLHGFYHAKQAKCKVSLAFKSFQAQFLRRPESDVYFICTEGDVVKKMIEESKKSGERINKPIHIKAYINYLTHPEEIADFILELSLKVIKLEHHHHHH | soluble
21 | MSPMRIGLVCIRGSVPAFENFGFLPTDIVGSNGLVNGSRAHRVLDGIIIPGGSIVESGSLSPELAFEIRRMASDGKFVLGICSGFQALAERTDIGRKSPCPVYREGLGLLNVTFHPMISNDRVEATITGESFLTSGMSGERITGFHCHTYGEIRGDAPEIMKSRIVRADYHERPGEILSGVCSDDGNVAGTMVHGCLDENQTLVSNILKFLDADETARERILEANRKLREALRSELGISTGIRVMDRGGTRGTPPAIMIASTGSDSGKTFILTGLAGALRRRGLRVGVIKVGPDVRDIVPALYLIKEPMEEHSSIRIGRLGWMELRDVLESVRGRYDIILIEGVMSILTGLLNDITPYSGAEIALAAGIPLIMVAGCSKGGIESAVVDLDAHISVLEGLGLEVSCGILNRVYDMDIFERASGGRYLAIPRVEMSERGGTPEVEIKLEDFCLKAMETVEEHLDVDTLISFAKKPEFRGYMGPEEIKKVFSPLEHHHHHH | not soluble
